Target: T1, FITC-casein (FITC label (FITC-casein))
T1 chain: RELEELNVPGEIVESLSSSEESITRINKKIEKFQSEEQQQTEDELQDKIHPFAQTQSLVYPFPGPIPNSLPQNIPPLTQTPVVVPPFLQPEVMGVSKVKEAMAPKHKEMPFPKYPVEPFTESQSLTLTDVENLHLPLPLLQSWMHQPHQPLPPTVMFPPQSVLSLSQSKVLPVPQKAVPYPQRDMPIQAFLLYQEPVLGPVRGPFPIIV
Assay: FP; competition: Ydj1 dissociating FITC-casein from Hsp104 R366E, ATPγS

B1: Ydj1 (natural protein)
chain: MVKETKFYDILGVPVTATDVEIKKAYRKCALKYHPDKNPSEEAAEKFKEASAAYEILSDPEKRDIYDQFGEDGLSGAGGAGGFPGGGFGFGDDIFSQFFGAGGAQRPRGPQRGKDIKHEISASLEELYKGRTAKLALNKQILCKECEGRGGKKGAVKKCTSCNGQGIKFVTRQMGPMIQRFQTECDVCHGTGDIIDPKDRCKSCNGKKVENERKILEVHVEPGMKDGQRIVFKGEADQAPDVIPGDVVFIVSERPHKSFKRDGDDLVYEAEIDLLTAIAGGEFALEHVSGDWLKVGIVPGEVIAPGMRKVIEGKGMPIPKYGGYGNLIIKFTIKFPENHFTSEENLKKLEEILPPRIVPAIPKKATVDECVLADFDPAKYNRTRASRGGANYDSDEEEQGGEGVQCASQ
  IC50: ~20 µM
